This experiment has as its target Postsynaptic density lattice (PSDL) preparation (OG-11U-IS) (rat). Briefly: negative-staining electron microscopy of grid-immobilised structures incubated with polymerizing tubulin; PSDL or PSD immobilised on the Formvar membrane of an EM grid, blocked with NGS and BSA at 0°C and 37°C, placed on a droplet of tubulin (ML116, 2 mg/mL, GTB, 1 mM GTP, 5% glycerol) polymerizing at 37°C; fixed with 1% glutaraldehyde, stained with nano-W.

Drawing on publication PMC12093452, this text covers percent of MT ends associated with PSDL and/or PSDL-like structures for one substance.

On to “Tubulin MAP-rich, ML116, Cytoskeleton Inc. (from UniProt P02550 1-451) (complex)”, for which the percent of MT ends associated with PSDL and/or PSDL-like structures stood at 30.9%.
